Reference: the supplement of paper PMC11780869

Tested on: Bacillus subtilis
Assay: cleaved RNA product abundance (RNA/gDNA barcode ratio) relative to median wild-type variant (ratio to wild type); higher = more accumulation of the downstream cleavage product
Conditions: cleavage site: cggR-gapA (positions -7 to +36 mutated)
How it was run: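 B. subtilis strains with chromosomally integrated reporter mRNAs (truncated aprE or tetM) holding barcoded, mutagenized RNase Y cleavage-site windows grew in LB at 37°C from OD600 0.0003 to 0.3. Cleaved product abundance is each construct's RNA:gDNA barcode ratio, scaled to the median construct with the unmutated site. It came from sequencing barcodes of gel-selected, reverse-transcribed cleaved RNA and of genomic DNA.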

[1] = experiment (reporter, strain, medium): exp 4a: truncated aprE reporter, strain BJT201 with 2% xylose (RNase J1 expressed)
[2] = experiment (reporter, strain, medium): exp 2b: truncated aprE reporter, strain BJT200
[3] = experiment (reporter, strain, medium): exp 6: tetM reporter, strain 168

Row | Sequence | cleaved RNA product abundance [1] | cleaved RNA product abundance [2] | cleaved RNA product abundance [3]
1 | ACAGACGAAGGAGCCGCAAAGAAGTTATTAACGGATGGATAATCCCTCAATATAAATATCTCTCACTTATTTAAA | 0.152 | – | –
2 | ACAGACGAAGGAGCCGCAAAGAAGTTATTAACGGATGTATAATCCCTCAATATAAATATCTCTCACTTATTTAAA | 0.147 | 0.124 | –
3 | ACAGACGAAGGAGCCGCAAAGAAGTTATTAACGGATTAATAATCCCTCAATATAAATATCTCTCACTTATTTAAA | 0.141 | 0.121 | –
4 | ACAGACGAAGGAGCCGCAAAGAAGTTATTAACGGCTGAATAATCCCTCAATATAAATATCTCTCACTTATTTAAA | 0.0788 | 0.0646 | –
5 | ACAGACGAAGGAGCCGCAAAGAAGTTATTAACGGTTGAATAATCCCTCAATATAAATATCTCTCACTTATTTAAA | 0.113 | 0.0654 | –
6 | ACAGACGAAGGAGCCGCAAAGAAGTTATTAACGTATGAATAATCCCTCAATATAAATATCTCTCACTTATTTAAA | 0.0853 | 0.098 | –
7 | ACAGACGAAGGAGCCGCAAAGAAGTTATTAACTGATGAATAATCCCTCAATATAAATATCTCTCACTTATTTAAA | 0.118 | 0.0892 | –
8 | ACAGACGAAGGAGCCGCAAAGAAGTTATTAAGAAATGAATAATCCCTCAATATAAATATCTCTCACTTATTTAAA | 0.1 | 0.0992 | –
9 | ACAGACGAAGGAGCCGCAAAGAAGTTATTAAGACATGAATAATCCCTCAATATAAATATCTCTCACTTATTTAAA | 0.132 | 0.111 | –
10 | ACAGACGAAGGAGCCGCAAAGAAGTTATTAAGAGAAGAATAAACCCTCAATATAAATATCTCTCACTTATTTAAA | 0.0499 | – | –
11 | ACAGACGAAGGAGCCGCAAAGAAGTTATTAAGAGAAGAATAATCCCTCAATATAAATATCTCTCACTTATTTAAA | 0.101 | 0.0791 | 0.107
12 | ACAGACGAAGGAGCCGCAAAGAAGTTATTAAGAGACGAATAATCCCTCAATATAAATATCTCTCACTTATTTAAA | 0.0728 | 0.0781 | –
13 | ACAGACGAAGGAGCCGCAAAGAAGTTATTAAGAGAGGAATAATCCCTCAATATAAATATCTCTCACTTATTTAAA | 0.199 | – | –
14 | ACAGACGAAGGAGCCGCAAAGAAGTTATTAAGAGATAAAAAATCCCTCAATATAAATATCTCTCACTTATTTAAA | 0.139 | – | –
15 | ACAGACGAAGGAGCCGCAAAGAAGTTATTAAGAGATAAATAATCCCTCAATATAAATATCTCTCACTTATTTAAA | 0.0932 | 0.0926 | –
16 | ACAGACGAAGGAGCCGCAAAGAAGTTATTAAGAGATAAATAATTCCTCAATATAAATATCTCTCACTTATTTAAA | – | 0.102 | –
17 | ACAGACGAAGGAGCCGCAAAGAAGTTATTAAGAGATCAATAATCCCTCAATATAAATATCTCTCACTTATTTAAA | 0.0785 | 0.0924 | –
18 | ACAGACGAAGGAGCCGCAAAGAAGTTATTAAGAGATGAAAAATACCTCAATATAAATATCTCTCACTTATTTAAA | 0.146 | – | –
19 | ACAGACGAAGGAGCCGCAAAGAAGTTATTAAGAGATGAAAAATCCCTCAATATAAATATCTCTCACTTATTTAAA | 0.18 | 0.119 | –
20 | ACAGACGAAGGAGCCGCAAAGAAGTTATTAAGAGATGAACAATCCCTCAATATAAATATCTCTCACTTATTTAAA | 0.205 | 0.0784 | –
21 | ACAGACGAAGGAGCCGCAAAGAAGTTATTAAGAGATGAATAAACCCTCAATATAAATATCTCTCACTTATTTAAA | 0.0846 | 0.148 | 0.115
22 | ACAGACGAAGGAGCCGCAAAGAAGTTATTAAGAGATGAATAACCCCTCAATATAAATATCTCTCACTTATTTAAA | 0.147 | – | –
23 | ACAGACGAAGGAGCCGCAAAGAAGTTATTAAGAGATGAATAAGCCCTCAATATAAATATCTCTCACTTATTTAAA | 0.0929 | 0.1 | –
24 | ACAGACGAAGGAGCCGCAAAGAAGTTATTAAGAGATGAATAATACCTCAATATAAATATCTCTCACTTATTTAAA | 0.109 | 0.106 | –
25 | ACAGACGAAGGAGCCGCAAAGAAGTTATTAAGAGATGAATAATACCTCAATATATATATCTCTCACTTATTTAAA | 0.174 | – | –
26 | ACAGACGAAGGAGCCGCAAAGAAGTTATTAAGAGATGAATAATACCTCAATTTAAATATCTCTCACTTATTTAAA | 0.0323 | – | –
